Series [1] relates to human neutrophils. The series is described as follows: Rate of NETs formation in PMA-stimulated neutrophils after pre-treatment, counted by confocal microscopy. The format is cell-based.
The subject of series [2] is human neutrophils. The series is described as follows: Scanning electron microscopy of neutrophils stimulated to form NETs. Conditions: pre-treatment 200 μg/ml, 3 hours after stimulation. It counts as cell-based. The method, then:
The observation by a scanning electron microscope was performed as follows. Eosinophil granulocytes were seeded on a glass cover or a glass bottom dish for cell culture in the number of 1×10^6 and pre-treated with 200 μg/ml of human lactoferrin or were not pre-treated before stimulation for NETs. Three hours later, the sample was pre-immobilized with 0.1 M phosphoric acid buffer (pH: 7.4) containing 2% glutaraldehyde at 4° C. for 1 hour. Next, the sample was post-immobilized with 0.1 M phosphoric acid buffer (pH: 7.4) containing 1% osmium tetroxide at 4° C. for 1 hour. After the immobilization, the sample was washed with 60% ethanol, with 70% ethanol, with 80% ethanol and with 95% ethanol while being gently shaken for 5 to 10 minutes, and immersed twice in 100% ethanol for 5 to 10 minutes to be dehydrated. Critical point drying was performed by substitution with isoamyl acetate for 10 to 15 minutes. The sample were covered with a layer of sublimated osmium tetroxide by use of an osmium plasma coating device (OPC80N, Filgen, Inc.) and observed by a scanning electron microscope (JSM-6320F, JEOL, Ltd.). In the case where the neutrophils were not stimulated, the neutrophils were kept spherical and no extracellular fiber was recognized. In the case where the neutrophils were stimulated with PMA, the cells were broken and many fiber components were formed.

Series [3] deals with human neutrophils. The series is described as follows: DNA concentration in the culture supernatant (Picogreen) after pre-treatment. The format is cell-based. Conditions: pre-treatment 2, 20, 200 μg/ml, 3 hours after stimulation; FIG. 1-D.
In series [4] the test system is human neutrophils. Kind of series: DNA concentration in the culture supernatant, lactoferrin added after PMA stimulation. It counts as cell-based. Conditions: p<0.001. The procedure: From heathy volunteer, 15 ml to 20 ml of peripheral blood was sampled for one cycle of experiment with an EDTA-containing syringe (needle: 18 to 22 G). After the blood sampling, 3 ml of mono-poly resolving medium (Cat No. DSBN100, DS Pharma Biomedical Co., Ltd.) contained in 15 ml conical tube, and then 3.5 ml of the whole blood were gently stacked in the lower-layer mono-poly resolving medium. The 15 ml conical tube was centrifuged at room temperature (15 to 30° C.) at 400×g for 20 minutes by a swing-type centrifuge, and then the conical tube was taken out gently. A brown plasma layer in the top layer and a lymphocyte/monocyte layer immediately below the brown plasma layer were removed by an aspirator or the like. A transparent layer below the lymphocyte/monocyte layer was removed as much as possible. A pale pink layer below the transparent layer was taken out by a Pasteur pipette. […]
The culture supernatant was recovered and centrifuged at 200×g for 10 minutes, and the supernatant was transferred to a new microscopic centrifuge tube. The DNA amount was measured by use of Picogreen dsDNA assay reagent (P11496 Invitrogen) in accordance with an accompanying protocol. […]

Series [5] has as its system human neutrophils. The series is described as follows: Specificity experiment: inhibition of NETs formation by DNA concentration in the culture supernatant. The format is cell-based. Conditions: n=3, p<0.01, FIG. 10. The method, then:
About 1 hour after the isolation of the neutrophils described in “1. Method of isolating human neutrophils” in Example 2, the neutrophils were pre-treated. On an 8-well microslide (Cat. No. ib 80826 Ibidi (registered trademark)), the neutrophils were seeded in 400 μl of culture DMEM+2% human serum Alb (serum human albumin; Product No. A9080 Sigma+4 mM L-glutamine) at a rate of about 1.0×10^5 cells/well, and stimulated with PMA (final concentration: 25 nM, stock: 10 mM in DMSO, Sigma Prod No. P8139). At thirty minutes before the stimulation, and at every one hour or every two hours after the stimulation, 200 μg/ml of human lactoferrin (stock: 100 mg/ml, 200 μl; Cat. No. SIGL6793, SIGMA) was added to perform inhibition [FIG. 2].
The culture supernatant was recovered and centrifuged at 200×g for 10 minutes, and the supernatant was transferred to a new microscopic centrifuge tube. The DNA amount was measured by use of Picogreen dsDNA assay reagent (P11496 Invitrogen) in accordance with an accompanying protocol. Treatment with human lactoferrin at one hour and two hours after the stimulation was a similar effect to the prior pre-treatment, the DNA concentration in the culture supernatant decreased, resulting in suppression of the release of the DNAs by the NETs [FIG. 2]. […]

The conditions of series [6]: bovine proteins; cited from earlier work.

These results are taken from patent US20220031813A1, “INHIBITOR OF EXTRACELLULAR TRAP FORMATION IN LEUKOCYTES” (priority 2013, published 2022).

B1: human lactoferrin: human lactoferrin, Cat No. SIGL6793, SIGMA; called human neutrophil-derived lactoferrin (protein, UniProt P02788 20-710, looked up)
Lactotransferrin: GRRRSVQWCAVSQPEATKCFQWQRNMRKVRGPPVSCIKRDSPIQCIQAIAENRADAVTLDGGFIYEAGLAPYKLRPVAAEVYGTERQPRTHYYAVAVVKKGGSFQLNELQGLKSCHTGLRRTAGWNVPIGTLRPFLNWTGPPEPIEAAVARFFSASCVPGADKGQFPNLCRLCAGTGENKCAFSSQEPYFSYSGAFKCLRDGAGDVAFIRESTVFEDLSDEAERDEYELLCPDNTRKPVDKFKDCHLARVPSHAVVARSVNGKEDAIWNLLRQAQEKFGKDKSPKFQLFGSPSGQKDLLFKDSAIGFSRVPPRIDSGLYLGSGYFTAIQNLRKSEEEVAARRARVVWCAVGEQELRKCNQWSGLSEGSVTCSSASTTEDCIALVLKGEADAMSLDGGYVYTAGKCGLVPVLAENYKSQQSSDPDPNCVDRPVEGYLAVAVVRRSDTSLTWNSVKGKKSCHTAVDRTAGWNIPMGLLFNQTGSCKFDEYFSQSCAPGSDPRSNLCALCIGDEQGENKCVPNSNERYYGYTGAFRCLAENAGDVAFVKDVTVLQNTDGNNNEAWAKDLKLADFALLCLDGKRKPVTEARSCHLAMAPNHAVVSRMDKVERLKQVLLHQQAKFGRNGSDCPDKFCLFQSETKNLLFNDNTECLARLHGKTTYEKYLGPQYVAGITNLKKCSTSPLLEACEFLRK
Consider B1, for which the “rate of the NETs formed at plateau, compared with stimulation merely with PMA” value with human neutrophils [1] (pre-treatment 2 μg/ml for 30 minutes, then PMA 25 nM) is listed as “half”; in the series with human neutrophils [1] (pre-treatment 20 μg/ml for 30 minutes, then PMA 25 nM) it was “half”. For the same molecule, the “formation of the NETs at plateau, compared with stimulation merely with PMA” value in the series with human neutrophils [1] (pre-treatment 200 μg/ml for 30 minutes, then PMA 25 nM) is recorded as “¼”. The “release of the DNAs to the outside of the cells (SYTOX green images)” value in the series with human neutrophils [1] (pre-treatment 200 μg/ml, FIG. 1-C) was “inhibited”. In addition, the “inhibitory effect on the formation of the NETs” value with human neutrophils [1] (pre-treatment with 2, 20 or 200 μg/ml, FIG. 1-A, 1-B) is given as “observed similarly to the bovine lactoferrin”. Moreover, in the series on human neutrophils [2], the “fiber components of the NETs by scanning electron microscope” value is given as “form such fiber components in bundles”. Besides, the “DNA concentration in the culture supernatant” value in the series with human neutrophils [3] is “decreased in a concentration-dependent manner”; in the series with human neutrophils [4] (200 μg/ml added one hour after PMA stimulation) it was “decreased”; in the series on human neutrophils [4] (200 μg/ml added two hours after PMA stimulation), “decreased”.

B2: angiogenin: bovine milk protein, known as a tumor angiogenesis factor, eluted from SP-Sepharose column (protein, UniProt P10152 24-148, looked up)
Angiogenin-1: AQDDYRYIHFLTQHYDAKPKGRNDEYCFNMMKNRRLTRPCKDRNTFIHGNKNDIKAICEDRNGQPYRGDLRISKSEFQITICKHKGGSSRPPCRYGATEDSRVIVVGCENGLPVHFDESFITPRH
With B2, in the series with human neutrophils [5], the “inhibition of the formation of the NETs” value was “Neither lactoperoxidase nor angiogenin inhibited”. Also, the Isoelectric point in series [6] is reported as 9.5.
